From article PMC4334965, “Molecular Bases of Catalysis and ADP-Ribose Preference of Human Mn^2+-Dependent ADP-Ribose/CDP-Alcohol Diphosphatase and Conversion by Mutagenesis to a Preferential Cyclic ADP-Ribose Phosphohydrolase” (PLoS ONE, 2015) come the findings set out here.

What all share (assay type): biochemical, Homo sapiens
Common to all, as to details: 5 mM MnCl2, pH 7.5, 37°C

Substrate in data set [1]: C[N+](C)(C)CCOP(=O)(O)OP(=O)([O-])OC[C@H]1O[C@@H](n2ccc(N)nc2=O)[C@H](O)[C@@H]1O
Description: colorimetric Pi assay coupled to alkaline phosphatase, saturation kinetics. The source says:
(§1) colorimetric Pi assay coupled to alkaline phosphatase, saturation kinetics on human ADPRibase-Mn

Substrate in data set [2]: N=c1c2ncn3c2ncn1[C@@H]1O[C@H](COP(=O)(O)OP(=O)(O)OC[C@H]2O[C@@H]3[C@H](O)[C@@H]2O)[C@@H](O)[C@H]1O
As to the kind of experiment: HPLC of N1-(5-phosphoribosyl)-AMP formed, saturation kinetics. An excerpt: HPLC of N1-(5-phosphoribosyl)-AMP formed, saturation kinetics on human ADPRibase-Mn

Substrate in data set [3]: Nc1ncnc2c1ncn2[C@@H]1O[C@H](CO)[C@H]2OP(=O)(O)O[C@H]21
Description: colorimetric Pi assay coupled to alkaline phosphatase, saturation kinetics.
Source text: as §1

B1: human ADPRibase-Mn (Homo sapiens; H111A) (protein)
chain: MDDKPNPEALSDSSERLFSFGVIADVQFADLEDGFNFQGTRRRYYRHSLLHLQGAIEDWNNESSMPCCVLQLGDIIDGYNAQYNASKKSLELVMDMFKRLKVPVHHTWGNAEFYNFSREYLTHSKLNTKFLEDQIVHHPETMPSEDYYAYHFVPFPKFRFILLDAYDLSVLGVDQSSPKYEQCMKILREHNPNTELNSPQGLSEPQFVQFNGGFSQEQLNWLNEVLTFSDTNQEKVVIVSHLPIYPDASDNVCLAWNYRDALAVIWSHECVVCFFAGHTHDGGYSEDPFGVYHVNLEGVIETAPDSQAFGTVHVYPDKMMLKGRGRVPDRIMNYKKERAFHC
notes: full length, 342 aa; expressed as GST fusion (pGEX-6P-3), GST cut off with PreScission protease, 11-aa N-terminal extension …
Take B1: in data set [1], the Km was determined as 7500 ± 700 µM, the kcat was determined as 2.2 ± 0.2 s⁻¹ and the kcat/Km turned out to be 300 ± 30 M⁻¹ s⁻¹.

B2: human ADPRibase-Mn (Homo sapiens; C253A) (protein)
chain: MDDKPNPEALSDSSERLFSFGVIADVQFADLEDGFNFQGTRRRYYRHSLLHLQGAIEDWNNESSMPCCVLQLGDIIDGYNAQYNASKKSLELVMDMFKRLKVPVHHTWGNHEFYNFSREYLTHSKLNTKFLEDQIVHHPETMPSEDYYAYHFVPFPKFRFILLDAYDLSVLGVDQSSPKYEQCMKILREHNPNTELNSPQGLSEPQFVQFNGGFSQEQLNWLNEVLTFSDTNQEKVVIVSHLPIYPDASDNVALAWNYRDALAVIWSHECVVCFFAGHTHDGGYSEDPFGVYHVNLEGVIETAPDSQAFGTVHVYPDKMMLKGRGRVPDRIMNYKKERAFHC
notes: as for B1
As to B2, in data set [2], the Km is reported as 200 ± 40 µM, the kcat is 8.9 ± 0.8 s⁻¹ and the kcat/Km was found to be 44000 ± 9000 M⁻¹ s⁻¹.

B3: human ADPRibase-Mn (Homo sapiens) (protein)
chain: MDDKPNPEALSDSSERLFSFGVIADVQFADLEDGFNFQGTRRRYYRHSLLHLQGAIEDWNNESSMPCCVLQLGDIIDGYNAQYNASKKSLELVMDMFKRLKVPVHHTWGNHEFYNFSREYLTHSKLNTKFLEDQIVHHPETMPSEDYYAYHFVPFPKFRFILLDAYDLSVLGVDQSSPKYEQCMKILREHNPNTELNSPQGLSEPQFVQFNGGFSQEQLNWLNEVLTFSDTNQEKVVIVSHLPIYPDASDNVCLAWNYRDALAVIWSHECVVCFFAGHTHDGGYSEDPFGVYHVNLEGVIETAPDSQAFGTVHVYPDKMMLKGRGRVPDRIMNYKKERAFHC
notes: as for B1
In the case of B3, in data set [2], the Km came to 780 ± 200 µM, the kcat turned out to be 3.2 ± 0.2 s⁻¹ and the kcat/Km was 4000 ± 1000 M⁻¹ s⁻¹. For the same protein, in data set [3], the Km was 2400 ± 300 µM, the kcat stood at 60 ± 13 s⁻¹ and the kcat/Km was found to be 25000 ± 6000 M⁻¹ s⁻¹. Also, in data set [1], the Km is listed as 350 ± 60 µM, the kcat was 50 ± 4 s⁻¹ and the catalytic efficiency (kcat/Km) came out at 150000 ± 30000 M⁻¹ s⁻¹.

B4: human ADPRibase-Mn (Homo sapiens; Q27H) (protein)
chain: MDDKPNPEALSDSSERLFSFGVIADVHFADLEDGFNFQGTRRRYYRHSLLHLQGAIEDWNNESSMPCCVLQLGDIIDGYNAQYNASKKSLELVMDMFKRLKVPVHHTWGNHEFYNFSREYLTHSKLNTKFLEDQIVHHPETMPSEDYYAYHFVPFPKFRFILLDAYDLSVLGVDQSSPKYEQCMKILREHNPNTELNSPQGLSEPQFVQFNGGFSQEQLNWLNEVLTFSDTNQEKVVIVSHLPIYPDASDNVCLAWNYRDALAVIWSHECVVCFFAGHTHDGGYSEDPFGVYHVNLEGVIETAPDSQAFGTVHVYPDKMMLKGRGRVPDRIMNYKKERAFHC
notes: as for B1
Regarding B4, in data set [1], the Km came to 2700 ± 200 µM, the kcat turned out to be 39 ± 12 s⁻¹ and the kcat/Km came to 14000 ± 3000 M⁻¹ s⁻¹.

B5: human ADPRibase-Mn (Homo sapiens; F210A) (protein)
chain: MDDKPNPEALSDSSERLFSFGVIADVQFADLEDGFNFQGTRRRYYRHSLLHLQGAIEDWNNESSMPCCVLQLGDIIDGYNAQYNASKKSLELVMDMFKRLKVPVHHTWGNHEFYNFSREYLTHSKLNTKFLEDQIVHHPETMPSEDYYAYHFVPFPKFRFILLDAYDLSVLGVDQSSPKYEQCMKILREHNPNTELNSPQGLSEPQFVQANGGFSQEQLNWLNEVLTFSDTNQEKVVIVSHLPIYPDASDNVCLAWNYRDALAVIWSHECVVCFFAGHTHDGGYSEDPFGVYHVNLEGVIETAPDSQAFGTVHVYPDKMMLKGRGRVPDRIMNYKKERAFHC
notes: as for B1
In the case of B5, in data set [1], the Km is on record as 11000 ± 2600 µM, the kcat was 50 ± 12 s⁻¹ and the kcat/Km is 4000 ± 100 M⁻¹ s⁻¹.

B6: human ADPRibase-Mn (Homo sapiens; C253A/F37A/L196F) (protein)
chain: MDDKPNPEALSDSSERLFSFGVIADVQFADLEDGFNAQGTRRRYYRHSLLHLQGAIEDWNNESSMPCCVLQLGDIIDGYNAQYNASKKSLELVMDMFKRLKVPVHHTWGNHEFYNFSREYLTHSKLNTKFLEDQIVHHPETMPSEDYYAYHFVPFPKFRFILLDAYDLSVLGVDQSSPKYEQCMKILREHNPNTEFNSPQGLSEPQFVQFNGGFSQEQLNWLNEVLTFSDTNQEKVVIVSHLPIYPDASDNVALAWNYRDALAVIWSHECVVCFFAGHTHDGGYSEDPFGVYHVNLEGVIETAPDSQAFGTVHVYPDKMMLKGRGRVPDRIMNYKKERAFHC
notes: as for B1
For B6, in data set [2], the Km was 460 ± 120 µM, the kcat amounted to 16 ± 3 s⁻¹ and the kcat/Km came out at 35500 ± 4300 M⁻¹ s⁻¹.
